# Assay results taken from US20140371148A1 (AMYLIN PHARMACEUTICALS, published 2014).
# Starred links: 1 amine or outer side, 2 acyl side, 3 side chain; linkers in the order of their positions; H or OH if unused. Groups on a side chain read outwards from the residue. No end group written: not given here. 2‑(S)‑cyano pyrrolidyl = 2-(S)-cyano pyrrolidyl group; γGlu = O=C(O)[C@H](CCC(=O)[*:2])N[*:1]; AEEA = NCCOCCOCC(=O)O
# T1: endogenously expressed GLP-1 receptor of thyroid c-cell carcinoma line 6-23 (UniProt P32301 22-463)
# T1 sequence (looked up): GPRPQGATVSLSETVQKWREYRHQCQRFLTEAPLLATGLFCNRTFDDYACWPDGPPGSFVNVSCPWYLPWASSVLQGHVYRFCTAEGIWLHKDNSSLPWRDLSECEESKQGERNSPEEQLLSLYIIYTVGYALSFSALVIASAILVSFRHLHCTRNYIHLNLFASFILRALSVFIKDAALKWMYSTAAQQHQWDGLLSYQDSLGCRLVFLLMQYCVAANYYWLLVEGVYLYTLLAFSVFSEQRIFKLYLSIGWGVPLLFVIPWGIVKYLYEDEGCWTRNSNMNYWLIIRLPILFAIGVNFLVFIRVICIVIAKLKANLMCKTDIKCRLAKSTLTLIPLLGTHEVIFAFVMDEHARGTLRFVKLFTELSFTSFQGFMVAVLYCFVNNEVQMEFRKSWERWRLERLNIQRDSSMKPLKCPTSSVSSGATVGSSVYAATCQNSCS
# B1: GIP(1-30)-Ado-Ado-Lys-N-ε-(2-(S)-cyano pyrrolidyl) (peptide)
# peptide: YAEGTFISDYSIAMDKIHQQDFVNWLLAQK
# modifications: C-terminus extended with Ado-Ado-Lys-N-ε-(2-(S)-cyano pyrrolidyl)
# B2: Lys^30 N-ε-(Ado-(γ-L-Glu-2-(S)-cyano pyrrolidyl)) GIP(1-30) (peptide)
# peptide: YAEGTFISDYSIAMDKIHQQDFVNWLLAQK([AEEA-γGlu-2‑(S)‑cyano pyrrolidyl])
# B3: [Leu^14] GIP(1-30)-Ado-Lys-N-ε-(2-(S)-cyano pyrrolidyl) (peptide)
# peptide: YAEGTFISDYSIALDKIHQQDFVNWLLAQK-{AEEA-Lys(N-ε-(2-(S)-cyano pyrrolidyl))}
# B4: N-(γ-L-Glu-2-(S)-cyano pyrrolidyl)-Ado-Ado) GIP(1-30) (peptide)
# peptide: B1 peptide
# modifications: N-terminus acylated with γ-L-Glu-(2-(S)-cyano pyrrolidyl)-Ado-Ado
# B5: GIP(1-30)-Ado-Lys-N-ε-(2-(S)-cyano pyrrolidyl) (peptide)
# peptide: B1 peptide
# modifications: C-terminus extended with Ado-Lys-N-ε-(2-(S)-cyano pyrrolidyl)
# B6: 5547 (peptide)
# peptide: HAEGTFTSDVSSYLEGQAAKEFIAWLVKGRG
# modifications: lisinopril joined at the C-terminus through linker type C9 of FIG. 2
# Target: Recombinant DPP-IV
# Test: cell-based or functional assay
row,DPP-IV IC50,Binder
1,114 nM,B1
2,49 nM,B2
3,109 nM,B3
4,64 nM,B4
5,98 nM,B5

# Target: T1, endogenously expressed GLP-1 receptor …
# Test: cell-based or functional assay
row,GLP Cyclase EC50,Binder
1,0.4 nM,B6
